Measured values as given in PMC10540216, “Activity Guided Azide-methyllysine Photo-trapping for Substrate Profiling of Lysine Demethylases” (Journal of the American Chemical Society, 2023).

B1: CSTF3_HUMAN (protein, UniProt Q12996 2-717, looked up)
Cleavage stimulation factor …: SGDGATEQAAEYVPEKVKKAEKKLEENPYDLDAWSILIREAQNQPIDKARKTYERLVAQFPSSGRFWKLYIEAEIKAKNYDKVEKLFQRCLMKVLHIDLWKCYLSYVRETKGKLPSYKEKMAQAYDFALDKIGMEIMSYQIWVDYINFLKGVEAVGSYAENQRITAVRRVYQRGCVNPMINIEQLWRDYNKYEEGINIHLAKKMIEDRSRDYMNARRVAKEYETVMKGLDRNAPSVPPQNTPQEAQQVDMWKKYIQWEKSNPLRTEDQTLITKRVMFAYEQCLLVLGHHPDIWYEAAQYLEQSSKLLAEKGDMNNAKLFSDEAANIYERAISTLLKKNMLLYFAYADYEESRMKYEKVHSIYNRLLAIEDIDPTLVYIQYMKFARRAEGIKSGRMIFKKAREDTRTRHHVYVTAALMEYYCSKDKSVAFKIFELGLKKYGDIPEYVLAYIDYLSHLNEDNNTRVLFERVLTSGSLPPEKSGEIWARFLAFESNIGDLASILKVEKRRFTAFKEEYEGKETALLVDRYKFMDLYPCSASELKALGYKDVSRAKLAAIIPDPVVAPSIVPVLKDEVDRKPEYPKPDTQQMIPFQPRHLAPPGLHPVPGGVFPVPPAAVVLMKLLPPPICFQGPFVQVDELMEIFRRCKIPNTVEEAVRIITGGAPELAVEGNGPVESNAVLTKAVKRPNEDSDEDEEKGAVVPPVHDIYRARQQKRIR
B2: SATB2_HUMAN (protein, UniProt Q9UPW6 1-733, looked up)
DNA-binding protein SATB2: MERRSESPCLRDSPDRRSGSPDVKGPPPVKVARLEQNGSPMGARGRPNGAVAKAVGGLMIPVFCVVEQLDGSLEYDNREEHAEFVLVRKDVLFSQLVETALLALGYSHSSAAQAQGIIKLGRWNPLPLSYVTDAPDATVADMLQDVYHVVTLKIQLQSCSKLEDLPAEQWNHATVRNALKELLKEMNQSTLAKECPLSQSMISSIVNSTYYANVSATKCQEFGRWYKKYKKIKVERVERENLSDYCVLGQRPMHLPNMNQLASLGKTNEQSPHSQIHHSTPIRNQVPALQPIMSPGLLSPQLSPQLVRQQIAMAHLINQQIAVSRLLAHQHPQAINQQFLNHPPIPRAVKPEPTNSSVEVSPDIYQQVRDELKRASVSQAVFARVAFNRTQGLLSEILRKEEDPRTASQSLLVNLRAMQNFLNLPEVERDRIYQDERERSMNPNVSMVSSASSSPSSSRTPQAKTSTPTTDLPIKVDGANINITAAIYDEIQQEMKRAKVSQALFAKVAANKSQGWLCELLRWKENPSPENRTLWENLCTIRRFLNLPQHERDVIYEEESRHHHSERMQHVVQLPPEPVQVLHRQQSQPAKESSPPREEAPPPPPPTEDSCAKKPRSRTKISLEALGILQSFIHDVGLYPDQEAIHTLSAQLDLPKHTIIKFFQNQRYHVKHHGKLKEHLGSAVDVAEYKDEELLTESEENDSEEGSEEMYKVEAEEENADKSKAAPAEIDQR
B3: ODP2_HUMAN (protein, UniProt P10515 87-647, looked up)
Dihydrolipoyllysine-residue …: SLPPHQKVPLPSLSPTMQAGTIARWEKKEGDKINEGDLIAEVETDKATVGFESLEECYMAKILVAEGTRDVPIGAIICITVGKPEDIEAFKNYTLDSSAAPTPQAAPAPTPAATASPPTPSAQAPGSSYPPHMQVLLPALSPTMTMGTVQRWEKKVGEKLSEGDLLAEIETDKATIGFEVQEEGYLAKILVPEGTRDVPLGTPLCIIVEKEADISAFADYRPTEVTDLKPQVPPPTPPPVAAVPPTPQPLAPTPSAPCPATPAGPKGRVFVSPLAKKLAVEKGIDLTQVKGTGPDGRITKKDIDSFVPSKVAPAPAAVVPPTGPGMAPVPTGVFTDIPISNIRRVIAQRLMQSKQTIPHYYLSIDVNMGEVLLVRKELNKILEGRSKISVNDFIIKASALACLKVPEANSSWMDTVIRQNHVVDVSVAVSTPAGLITPIVFNAHIKGVETIANDVVSLATKAREGKLQPHEFQGGTFTISNLGMFGIKNFSAIINPPQACILAIGASEDKLVPADNEKGFDVASMMSVTLSCDHRVVDGAVGAQWLAEFRKYLEKPITMLL
B4: PLOD2_HUMAN (protein, UniProt O00469 26-737, looked up)
Procollagen-lysine,2-oxoglutar …: ADSEKPSSIPTDKLLVITVATKESDGFHRFMQSAKYFNYTVKVLGQGEEWRGGDGINSIGGGQKVRLMKEVMEHYADQDDLVVMFTECFDVIFAGGPEEVLKKFQKANHKVVFAADGILWPDKRLADKYPVVHIGKRYLNSGGFIGYAPYVNRIVQQWNLQDNDDDQLFYTKVYIDPLKREAINITLDHKCKIFQTLNGAVDEVVLKFENGKARAKNTFYETLPVAINGNGPTKILLNYFGNYVPNSWTQDNGCTLCEFDTVDLSAVDVHPNVSIGVFIEQPTPFLPRFLDILLTLDYPKEALKLFIHNKEVYHEKDIKVFFDKAKHEIKTIKIVGPEENLSQAEARNMGMDFCRQDEKCDYYFSVDADVVLTNPRTLKILIEQNRKIIAPLVTRHGKLWSNFWGALSPDGYYARSEDYVDIVQGNRVGVWNVPYMANVYLIKGKTLRSEMNERNYFVRDKLDPDMALCRNAREMGVFMYISNRHEFGRLLSTANYNTSHYNNDLWQIFENPVDWKEKYINRDYSKIFTENIVEQPCPDVFWFPIFSEKACDELVEEMEHYGKWSGGKHHDSRISGGYENVPTDDIHMKQVDLENVWLHFIREFIAPVTLKVFAGYYTKGFALLNFVVKYSPERQRSLRPHHDASTFTINIALNNVGEDFQGGGCKFLRYNCSIESPRKGWSFMHPGRLTHLHEGLPVKNGTRYIAVSFIDP
B5: PABP4_HUMAN (protein, UniProt Q13310 1-644, looked up)
Polyadenylate-binding protein …: MNAAASSYPMASLYVGDLHSDVTEAMLYEKFSPAGPVLSIRVCRDMITRRSLGYAYVNFQQPADAERALDTMNFDVIKGKPIRIMWSQRDPSLRKSGVGNVFIKNLDKSIDNKALYDTFSAFGNILSCKVVCDENGSKGYAFVHFETQEAADKAIEKMNGMLLNDRKVFVGRFKSRKEREAELGAKAKEFTNVYIKNFGEEVDDESLKELFSQFGKTLSVKVMRDPNGKSKGFGFVSYEKHEDANKAVEEMNGKEISGKIIFVGRAQKKVERQAELKRKFEQLKQERISRYQGVNLYIKNLDDTIDDEKLRKEFSPFGSITSAKVMLEDGRSKGFGFVCFSSPEEATKAVTEMNGRIVGSKPLYVALAQRKEERKAHLTNQYMQRVAGMRALPANAILNQFQPAAGGYFVPAVPQAQGRPPYYTPNQLAQMRPNPRWQQGGRPQGFQGMPSAIRQSGPRPTLRHLAPTGSECPDRLAMDFGGAGAAQQGLTDSCQSGGVPTAVQNLAPRAAVAAAAPRAVAPYKYASSVRSPHPAIQPLQAPQPAVHVQGQEPLTASMLAAAPPQEQKQMLGERLFPLIQTMHSNLAGKITGMLLEIDNSELLHMLESPESLRSKVDEAVAVLQAHHAKKEAAQKVGAVAAATS
B6: MTA2_HUMAN (protein, UniProt O94776 1-668, looked up)
Metastasis-associated protein …: MAANMYRVGDYVYFENSSSNPYLVRRIEELNKTANGNVEAKVVCLFRRRDISSSLNSLADSNAREFEEESKQPGVSEQQRHQLKHRELFLSRQFESLPATHIRGKCSVTLLNETDILSQYLEKEDCFFYSLVFDPVQKTLLADQGEIRVGCKYQAEIPDRLVEGESDNRNQQKMEMKVWDPDNPLTDRQIDQFLVVARAVGTFARALDCSSSIRQPSLHMSAAAASRDITLFHAMDTLQRNGYDLAKAMSTLVPQGGPVLCRDEMEEWSASEAMLFEEALEKYGKDFNDIRQDFLPWKSLASIVQFYYMWKTTDRYIQQKRLKAAEADSKLKQVYIPTYTKPNPNQIISVGSKPGMNGAGFQKGLTCESCHTTQSAQWYAWGPPNMQCRLCASCWIYWKKYGGLKTPTQLEGATRGTTEPHSRGHLSRPEAQSLSPYTTSANRAKLLAKNRQTFLLQTTKLTRLARRMCRDLLQPRRAARRPYAPINANAIKAECSIRLPKAAKTPLKIHPLVRLPLATIVKDLVAQAPLKPKTPRGTKTPINRNQLSQNRGLGGIMVKRAYETMAGAGVPFSANGRPLASGIRSSSQPAAKRQKLNPADAPNPVVFVATKDTRALRKALTHLEMRRAARRPNLPLKVKPTLIAVRPPVPLPAPSHPASTNEPIVLED
B7: DDX1_HUMAN (protein, UniProt Q92499 1-740, looked up)
ATP-dependent RNA helicase …: MAAFSEMGVMPEIAQAVEEMDWLLPTDIQAESIPLILGGGDVLMAAETGSGKTGAFSIPVIQIVYETLKDQQEGKKGKTTIKTGASVLNKWQMNPYDRGSAFAIGSDGLCCQSREVKEWHGCRATKGLMKGKHYYEVSCHDQGLCRVGWSTMQASLDLGTDKFGFGFGGTGKKSHNKQFDNYGEEFTMHDTIGCYLDIDKGHVKFSKNGKDLGLAFEIPPHMKNQALFPACVLKNAELKFNFGEEEFKFPPKDGFVALSKAPDGYIVKSQHSGNAQVTQTKFLPNAPKALIVEPSRELAEQTLNNIKQFKKYIDNPKLRELLIIGGVAARDQLSVLENGVDIVVGTPGRLDDLVSTGKLNLSQVRFLVLDEADGLLSQGYSDFINRMHNQIPQVTSDGKRLQVIVCSATLHSFDVKKLSEKIMHFPTWVDLKGEDSVPDTVHHVVVPVNPKTDRLWERLGKSHIRTDDVHAKDNTRPGANSPEMWSEAIKILKGEYAVRAIKEHKMDQAIIFCRTKIDCDNLEQYFIQQGGGPDKKGHQFSCVCLHGDRKPHERKQNLERFKKGDVRFLICTDVAARGIDIHGVPYVINVTLPDEKQNYVHRIGRVGRAERMGLAISLVATEKEKVWYHVCSSRGKGCYNTRLKEDGGCTIWYNEMQLLSEIEEHLNCTISQVEPDIKVPVDEFDGKVTYGQKRAAGGGSYKGHVDILAPTVQELAALEKEAQTSFLHLGYLPNQLFRTF
B8: SFPQ_HUMAN (protein, UniProt P23246 1-707, looked up)
Splicing factor, proline- and …: MSRDRFRSRGGGGGGFHRRGGGGGRGGLHDFRSPPPGMGLNQNRGPMGPGPGQSGPKPPIPPPPPHQQQQQPPPQQPPPQQPPPHQPPPHPQPHQQQQPPPPPQDSSKPVVAQGPGPAPGVGSAPPASSSAPPATPPTSGAPPGSGPGPTPTPPPAVTSAPPGAPPPTPPSSGVPTTPPQAGGPPPPPAAVPGPGPGPKQGPGPGGPKGGKMPGGPKPGGGPGLSTPGGHPKPPHRGGGEPRGGRQHHPPYHQQHHQGPPPGGPGGRSEEKISDSEGFKANLSLLRRPGEKTYTQRCRLFVGNLPADITEDEFKRLFAKYGEPGEVFINKGKGFGFIKLESRALAEIAKAELDDTPMRGRQLRVRFATHAAALSVRNLSPYVSNELLEEAFSQFGPIERAVVIVDDRGRSTGKGIVEFASKPAARKAFERCSEGVFLLTTTPRPVIVEPLEQLDDEDGLPEKLAQKNPMYQKERETPPRFAQHGTFEYEYSQRWKSLDEMEKQQREQVEKNMKDAKDKLESEMEDAYHEHQANLLRQDLMRRQEELRRMEELHNQEMQKRKEMQLRQEEERRRREEEMMIRQREMEEQMRRQREESYSRMGYMDPRERDMRMGGGGAMNMGDPYGSGGQKFPPLGGGGGIGYEANPGVPPATMSGSMMGSDMRTERFGQGGAGPVGGQGPRGMGPGTPAGYGRGREEYEGPNKKPRF

These molecules were tested on KDM4A-I71AzF (assay: CASI: photo-crosslinking with HEK293T cell extracts, StrepTactin enrichment and LC-MS/MS proteomics). Conditions: sheet "Final results but with 0.01".
Format: binding, human
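Note: lysates from HEK293T cells pretreated with a KDM4 inhibitor to raise proteome methylation, affinity-purified after ±UV, gel-resolved, trypsin-digested, with exclusive unique peptides per protein averaged per condition.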

| Molecule | Fold change (+UV/-UV) |
| --- | --- |
| B1 | 0 |
| B2 | 1 |
| B3 | 1 |
| B4 | 0.75 |
| B5 | 0 |
| B6 | 4 |
| B7 | 1.333 |
| B8 | 0.9 |
